Data set [1] has as its target T1, MgrA (Staphylococcus aureus LAC, UniProt P0C1S0 1-147).
T1 sequence: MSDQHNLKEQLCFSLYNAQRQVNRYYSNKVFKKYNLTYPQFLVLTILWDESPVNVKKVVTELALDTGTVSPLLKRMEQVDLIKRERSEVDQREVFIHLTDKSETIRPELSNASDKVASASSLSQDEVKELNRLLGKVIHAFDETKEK
Nature of the data set: EMSA; 0-2 uM MgrA, 50 nM probe. The note with it: protein: recombinant; tags: His6-MBP removed by Tev cleavage (untagged; possible linker residues); chain copies: 2; label: IRDye 700 at one end (HC487); blunt. A general note: Mobility shift assays separate free from complexed probe on a gel.

For data set [2], the target named is T1, MgrA. In words: competition; 10-fold excess over labeled Pebh. The note with it: protein: recombinant; tags: His6-MBP removed by Tev cleavage (untagged; possible linker residues); chain copies: 2; blunt.
Data set [3] has as its target T1, MgrA. In words: competition; 10-fold excess over labeled sraP P2 probe. The settings on record: protein: recombinant; tags: His6-MBP removed by Tev cleavage (untagged; possible linker residues); chain copies: 2; blunt.
For data set [4], the target named is T1, MgrA. In words: EMSA; 0-2 uM MgrA, 50 nM probe; dose-dependent. The note with it: protein: recombinant; tags: His6-MBP removed by Tev cleavage (untagged; possible linker residues); chain copies: 2; label: IRDye 700 on HC346; blunt.

B1: Pebh probe (ebh probe2) (dsDNA)
DNA 1: GAGCATAAATAAATTGTTCAACACATAGTTGTAATGTGTTTCAATACTTT
DNA 2: AAAGTATTGAAACACATTACAACTATGTGTTGAACAATTTATTTATGCTC
On to B1, for which the binding result in data set [1] is given as “binds”.

B2: ebh specific competitor SP (dsDNA)
DNA 1: GAGCATAAATAAATTGTTCAACACATAGTTGTAATGTGTTTCAATACTTT
DNA 2: AAAGTATTGAAACACATTACAACTATGTGTTGAACAATTTATTTATGCTC
As for B2, in data set [2], the binding result is “binds”.

B3: non-specific competitor NSP (sraP probe 6) (dsDNA)
DNA 1: CTGGAAAAAATTGGGTAAAATCCGGAATTAAAGAAATAGAAATGTTCAAA
DNA 2: TTTGAACATTTCTATTTCTTTAATTCCGGATTTTACCCAATTTTTTCCAG
Consider B3, for which the binding result in data set [2] is listed as “no binding”.

B4: sraP mutated competitor MP (sraP probe5 mut) (dsDNA)
DNA 1: TTTGTAGATGTCAAGCACCTCATTAAATTGAATAGTGGCATATATTATAA
DNA 2: TTATAATATATGCCACTATTCAATTTAATGAGGTGCTTGACATCTACAAA
For B4, the binding result in data set [3] is on record as “no binding”.

B5: sraP P2 probe (sraP probe5) (dsDNA)
DNA 1: TTTGTATCAAAAAAGAGTTGTATTAAATTGAATAGTGGCATATATTATAA
DNA 2: TTATAATATATGCCACTATTCAATTTAATACAACTCTTTTTTGATACAAA
Consider B5, for which the binding result in data set [4] is reported as “binds”.

B6: sraP specific competitor SP (dsDNA)
DNA 1: TTTGTATCAAAAAAGAGTTGTATTAAATTGAATAGTGGCATATATTATAA
DNA 2: TTATAATATATGCCACTATTCAATTTAATACAACTCTTTTTTGATACAAA
As for B6, the binding result in data set [3] is “binds”.

These data come from publication PMC4856396, “The Staphylococcus aureus Global Regulator MgrA Modulates Clumping and Virulence by Controlling Surface Protein Expression”.
